Data: patent US20210388110A1 (published 2021)
Substitutions are numbered along the chain they refer to. Where two headings read alike, the source gives them in different places. One block for each binder: values may come before it.

Key:
soluble human GPC3 [1] = target: T1, soluble human GPC3 (human, UniProt P51654 25-563, limits assumed); assay: SPR (Biacore), single-arm antibody, soluble human GPC3
T1 construct: also called glypican 3

soluble human GPC3 [2] = target: T1, soluble human GPC3; assay: as above; remark: listed apart in the source

T1 sequence (P51654 other isoform, or with tags, fused parts or gaps limits assumed, form in doubt): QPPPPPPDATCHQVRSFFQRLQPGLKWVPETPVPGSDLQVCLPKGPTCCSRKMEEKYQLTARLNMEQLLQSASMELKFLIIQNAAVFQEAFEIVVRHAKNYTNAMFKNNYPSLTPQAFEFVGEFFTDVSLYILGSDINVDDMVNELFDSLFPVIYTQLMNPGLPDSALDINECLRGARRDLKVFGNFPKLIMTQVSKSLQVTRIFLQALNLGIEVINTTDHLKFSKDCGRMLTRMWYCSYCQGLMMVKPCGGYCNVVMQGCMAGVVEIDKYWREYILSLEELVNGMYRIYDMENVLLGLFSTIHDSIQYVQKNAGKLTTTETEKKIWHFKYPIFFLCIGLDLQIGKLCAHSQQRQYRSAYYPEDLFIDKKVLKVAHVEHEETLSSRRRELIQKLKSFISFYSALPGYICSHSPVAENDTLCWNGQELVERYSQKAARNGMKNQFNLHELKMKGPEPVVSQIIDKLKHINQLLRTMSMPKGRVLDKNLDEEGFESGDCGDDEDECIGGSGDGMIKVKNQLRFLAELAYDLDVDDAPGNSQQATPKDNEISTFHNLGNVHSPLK

B1: H0610-G1dh/none-Hi-Kn010G3/L0000-k0 (antibody, human IgG1, kappa)
heavy: not shown
chain: EPKSSDKTHTCPPCPAPELLGGPSVFLFPPKPKDTLMISRTPEVTCVVVDVSHEDPEVKFNWYVDGVEVHNAKTKPREEQYNSTYRVVSVLTVLHQDWLNGKEYKCKVSNKALPAPIEKTISKAKGQPREPQVCTLPPSRDELTKNQVSLWCLVKGFYPSDIAVEWESNGQPENNYKTTPPVLDSDGSFFLYSKLTVDKSRWQQGNVFSCSVMHEALHNRYTQKSLSLSP
light: DIVMTQSPLSLPVTPGEPASISCRSSQSLVHSNRNTYLHWYQQKPGQAPRLLIYKVSNRFSGVPDRFSGSGSGTDFTLKISRVEAEDVGVYYCGQGTQVPYTFGQGTKLEIKRTVAAPSVFIFPPSDEQLKSGTASVVCLLNNFYPREAKVQWKVDNALQSGNSQESVTEQDSKDSTYSLSSTLTLSKADYEKHKVYACEVTHQGLSSPVTKSFNRGEC
notes: single-arm antibody
Kd (soluble human GPC3 [1]): 4.16 nM

B2: H0610-G1dh/none-Hi-Kn010G3/L0129-k0 (antibody, human IgG1, kappa)
heavy: not shown
chain: B1 chain
light: B1 light with F60R
notes: single-arm antibody
Kd (soluble human GPC3 [2]): 5.28 nM

B3: H0610-G1dh/none-Hi-Kn010G3/L0091-k0 (antibody, human IgG1, kappa)
heavy: not shown
chain: B1 chain
light: B1 light with H39N
notes: single-arm antibody
Kd (soluble human GPC3 [2]): 5.43 nM

B4: H0610-G1dh/none-Hi-Kn010G3/L0126-k0 (antibody, human IgG1, kappa)
heavy: not shown
chain: B1 chain
light: B1 light with F60N
notes: single-arm antibody
Kd (soluble human GPC3 [2]): 5.62 nM

B5: H0610-G1dh/none-Hi-Kn010G3/L0063-k0 (antibody, human IgG1, kappa)
heavy: not shown
chain: B1 chain
light: B1 light with N35E
notes: single-arm antibody
Kd (soluble human GPC3 [2]): 6.03 nM

B8: H0610-G1dh/none-Hi-Kn010G3/L0136-k0 (antibody, human IgG1, kappa)
heavy: not shown
chain: B1 chain
light: B1 light with S61F
notes: single-arm antibody
Kd (soluble human GPC3 [2]): 5.04 nM

B9: H0610-G1dh/none-Hi-Kn010G3/L0089-k0 (antibody, human IgG1, kappa)
heavy: not shown
chain: B1 chain
light: B1 light with H39L
notes: single-arm antibody
Kd (soluble human GPC3 [2]): 5.24 nM

B10: H0610-G1dh/none-Hi-Kn010G3/L0139-k0 (antibody, human IgG1, kappa)
heavy: not shown
chain: B1 chain
light: B1 light with S61I
notes: single-arm antibody
Kd (soluble human GPC3 [2]): 4.78 nM

B12: H0610-G1dh/none-Hi-Kn010G3/L0113-k0 (antibody, human IgG1, kappa)
heavy: not shown
chain: B1 chain
light: B1 light with N58T
notes: single-arm antibody
Kd (soluble human GPC3 [2]): 4.82 nM

B14: H0610-G1dh/none-Hi-Kn010G3/L0180-k0 (antibody, human IgG1, kappa)
heavy: not shown
chain: B1 chain
light: B1 light with V99N
notes: single-arm antibody
Kd (soluble human GPC3 [2]): 4.48 nM

B16: H0610-G1dh/none-Hi-Kn010G3/L0104-k0 (antibody, human IgG1, kappa)
heavy: not shown
chain: B1 chain
light: B1 light with N58F
notes: single-arm antibody
Kd (soluble human GPC3 [2]): 5.9 nM

B17: H0610-G1dh/none-Hi-Kn010G3/L0069-k0 (antibody, human IgG1, kappa)
heavy: not shown
chain: B1 chain
light: B1 light with N35M
notes: single-arm antibody
Kd (soluble human GPC3 [2]): 5.32 nM

B18: H0610-G1dh/none-Hi-Kn010G3/L0123-k0 (antibody, human IgG1, kappa)
heavy: not shown
chain: B1 chain
light: B1 light with F60K
notes: single-arm antibody
Kd (soluble human GPC3 [2]): 5.08 nM

B19: H0610-G1dh/none-Hi-Kn010G3/L0132-k0 (antibody, human IgG1, kappa)
heavy: not shown
chain: B1 chain
light: B1 light with F60V
notes: single-arm antibody
Kd (soluble human GPC3 [2]): 5.65 nM

B21: H0610-G1dh/none-Hi-Kn010G3/L0109-k0 (antibody, human IgG1, kappa)
heavy: not shown
chain: B1 chain
light: B1 light with N58M
notes: single-arm antibody
Kd (soluble human GPC3 [2]): 5.7 nM

B23: H0610-G1dh/none-Hi-Kn010G3/L0147-k0 (antibody, human IgG1, kappa)
heavy: not shown
chain: B1 chain
light: B1 light with S61V
notes: single-arm antibody
Kd (soluble human GPC3 [2]): 4.38 nM

B24: H0610-G1dh/none-Hi-Kn010G3/L0138-k0 (antibody, human IgG1, kappa)
heavy: not shown
chain: B1 chain
light: B1 light with S61H
notes: single-arm antibody
Kd (soluble human GPC3 [2]): 5.24 nM

B25: H0610-G1dh/none-Hi-Kn010G3/L0144-k0 (antibody, human IgG1, kappa)
heavy: not shown
chain: B1 chain
light: B1 light with S61Q
notes: single-arm antibody
Kd (soluble human GPC3 [2]): 4.84 nM

B26: H0610-G1dh/none-Hi-Kn010G3/L0117-k0 (antibody, human IgG1, kappa)
heavy: not shown
chain: B1 chain
light: B1 light with F60A
notes: single-arm antibody
Kd (soluble human GPC3 [2]): 4.92 nM

Other lines, results leading:

Kd (soluble human GPC3 [2]): 5.87 nM
B6: H0610-G1dh/none-Hi-kn010G3/L0137-k0 (antibody, human IgG1, kappa)
heavy: not shown
chain: B1 chain
light: B1 light with S61G
notes: single-arm antibody

Kd (soluble human GPC3 [2]): 5.38 nM
B7: H0610-G1dh/none-Hi-Kn010G3/L0232-k0 (antibody, human IgG1, kappa)
heavy: not shown
chain: B1 chain
light: B1 light with Q27E
notes: single-arm antibody

Kd (soluble human GPC3 [1]): 5.25 nM
Kd (soluble human GPC3 [2]): 5.25 nM
B11: GCH054-G1dh/none-Hi-Kn010G3/L0011-k0 (antibody, human IgG1, kappa)
heavy: not shown
chain: B1 chain
light: B1 light with S28P
notes: single-arm antibody

Kd (soluble human GPC3 [2]): 5.37 nM
B13: H0610-G1dh/none-Hi-Kn010G3/TR01L005-k0 (antibody, human IgG1, kappa)
heavy: not shown
chain: B1 chain
light: B1 light with Q42L, A48S, R50Q, L109V, K112E
notes: single-arm antibody

Kd (soluble human GPC3 [1]): 0.884 nM
B15: GCH065-G1dh/none-Hi-Kn010G3/L0011-k0 (antibody, human IgG1, kappa)
heavy: not shown
chain: B1 chain
light: B1 light with S28P
notes: single-arm antibody

Kd (soluble human GPC3 [2]): 4.92 nM
B20: H0610-G1dh/none-Hi-Kn010G3/L0187-k0 (antibody, human IgG1, kappa)
heavy: not shown
chain: B1 chain
light: B1 light with V99Y
notes: single-arm antibody

Kd (soluble human GPC3 [2]): 5.08 nM
B22: H0610-G1dh/none-Hi-Kn010G3/TR01L003-k0 (antibody, human IgG1, kappa)
heavy: not shown
chain: B1 chain
light: B1 light with L109V, K112E
notes: single-arm antibody

Kd (soluble human GPC3 [2]): 5.66 nM
B27: H0610-G1dh/none-Hi-kn010G3/L0106-k0 (antibody, human IgG1, kappa)
heavy: not shown
chain: B1 chain
light: B1 light with N58H
notes: single-arm antibody

Kd (soluble human GPC3 [1]): 4.54 nM
B28: GCH094-G1dh/none-Hi-Kn010G3/L0011-k0 (antibody, human IgG1, kappa)
heavy: not shown
chain: B1 chain
light: B1 light with S28P
notes: single-arm antibody
